The source of these data is the supplement of paper PMC12783771.

± gives the standard deviation of the averaged measurements.

Data set [1] is described as follows: sfGFP reporter fluorescence (15 h) (µM FITC); higher = higher leak. Particulars: library round: Round 0; ligand: none. Here is the method: (§1)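 Cell-free (BL21 Star DE3 extract, PANOx-SP) biosensing: 1 µL Echo-assembled reactions with linear PbrR variant templates (5 nM) and pPbrR-sfGFP reporter, with 1 µM Pb (lead chloride), 30 µM Zn (zinc acetate) or no ligand; endpoint sfGFP fluorescence after 15 h at 30 °C, calibrated as µM FITC. Round 0 library (alanine scan, site saturation, combinatorial) of PbrR from Cupriavidus metallidurans; 2 biological replicates.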

A short description of data set [2]: sfGFP reporter fluorescence (15 h) (µM FITC); higher = stronger transcriptional activation. The settings on record: library round: Round 0. Here is the method: as §1

In the case of “MNIQIGELAKRTACPVVTIRFYEQEGLLPPPGRSRGNFRLYGEEHVERLQFIRHCRSLDMPLSDVRTLLSYRKRPDQDCGEVNMLLDEHIRQVESRIGALLELKHHLVELREACSGARPAQSCGILQGLSDCVCDTRGTTAHPSDA [*146A]”, the sfGFP reporter fluorescence was 0.06121 ± 0.00052 in data set [1], 0.0918 ± 0.006 in data set [2] (ligand: 1 µM Pb) and 0.671 ± 0.0096 in data set [2] (ligand: 30 µM Zn).
